Assay results published in patent publication US20150266963A1 (ARGEN X B V, published 2015).
Substitutions are numbered along the chain they refer to.

T1: human-mouse CD70 chimera chim-3 (Flag-TNC-CD70)
T1 construct: also called chimera 3
T1 chain: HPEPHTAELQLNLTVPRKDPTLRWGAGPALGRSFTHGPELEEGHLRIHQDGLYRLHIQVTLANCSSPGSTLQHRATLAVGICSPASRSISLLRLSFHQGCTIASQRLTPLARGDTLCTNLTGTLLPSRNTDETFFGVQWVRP

T2: human-mouse CD70 chimera chim-2.1 (Flag-TNC-CD70) (Soluble homotrimer held by the TNC domain; one CD70 ECD chain is given.)
T2 construct: also called chimera 2.1; not shown: N-terminal Flag tag, TNC (tenascin-C) trimerisation domain and any linkers of the Flag-TNC-CD70 construct
T2 chain: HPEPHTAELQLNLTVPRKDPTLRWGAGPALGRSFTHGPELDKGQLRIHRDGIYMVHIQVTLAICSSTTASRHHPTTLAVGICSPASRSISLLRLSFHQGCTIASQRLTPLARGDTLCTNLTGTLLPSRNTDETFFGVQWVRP

T3: human-mouse CD70 chimera chim-2.4 (Flag-TNC-CD70)
T3 construct: also called chimera 2.4
T3 chain: T2 chain with D41E, K42E, Q44H, R49Q, I52L, M54R, V55L

T4: human-mouse CD70 chimera chim-2 (Flag-TNC-CD70)
T4 construct: also called chimera 2
T4 chain: T2 chain with D41E, K42E, Q44H, R49Q, I52L, M54R, V55L, I63N

T5: human-mouse CD70 chimera chim-4 (Flag-TNC-CD70) (Mus musculus (Mouse), UniProt O55237 54-192)
T5 construct: also called chimera 4
T5 chain: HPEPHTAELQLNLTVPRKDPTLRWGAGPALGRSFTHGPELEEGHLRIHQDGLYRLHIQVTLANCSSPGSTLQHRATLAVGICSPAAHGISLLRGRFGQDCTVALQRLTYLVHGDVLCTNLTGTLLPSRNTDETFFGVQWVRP

T6: human-mouse CD70 chimera chim-1 (Flag-TNC-CD70) (Homo sapiens (Human), UniProt P32970 58-193, Soluble homotrimer held by the TNC domain; one CD70 ECD chain is given.)
T6 construct: also called chimera 1; not shown: N-terminal Flag tag, TNC (tenascin-C) trimerisation domain and any linkers of the Flag-TNC-CD70 construct
T6 chain: T2 chain with T35L

T7: human-mouse CD70 chimera chim-2.2 (Flag-TNC-CD70)
T7 construct: also called chimera 2.2; not shown: N-terminal Flag tag, TNC trimerisation domain and any linkers of the Flag-TNC-CD70 construct
T7 chain: T2 chain with D41E, K42E, Q44H

T8: mouse Flag-TNC-CD70 (mouse, UniProt O55237 45-195)
T8 construct: extracellular domain; also called mouse CD70; not shown: Flag tag and TNC trimerisation domain
T8 sequence (looked up): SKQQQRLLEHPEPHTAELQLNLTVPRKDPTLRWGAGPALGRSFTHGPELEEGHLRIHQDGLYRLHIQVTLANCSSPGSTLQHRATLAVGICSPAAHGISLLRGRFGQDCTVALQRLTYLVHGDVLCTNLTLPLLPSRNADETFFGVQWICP

T9: CD27 (UniProt P26842 21-192, limits assumed)
T9 sequence (looked up): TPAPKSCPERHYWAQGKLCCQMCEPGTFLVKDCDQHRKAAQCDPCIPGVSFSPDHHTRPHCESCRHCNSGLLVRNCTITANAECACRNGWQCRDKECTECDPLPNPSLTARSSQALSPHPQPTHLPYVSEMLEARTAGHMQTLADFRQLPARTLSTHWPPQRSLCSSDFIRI

B1: ARGX-110 Fab (Fab, V domains shown)
VH: EVQLVESGGGLVQPGGSLRLSCAASGFTFSVYYMNWVRQAPGKGLEWVSDINNEGGTTYYADSVKGRFTISRDNSKNSLYLQMNSLRAEDTAVYYCARDAGYSNHVPIFDSWGQGTLVTVSS
VL: QAVVTQEPSLTVSPGGTVTLTCGLKSGSVTSDNFPTWYQQTPGQAPRLLIYNTNTRHSGVPDRFSGSILGNKAALTITGAQADDEAEYFCALFISNPSVEFGGGTQLTVLG
B2: recombinant human CD27 Fc chimera (CD27-Fc) (Fc fusion, UniProt P26842 21-192, looked up)
chain: T9 sequence (looked up)
notes: Bought reagent; also called recombinant CD27-Fc; Fc part of the bought chimera not given
B3: recombinant human CD70 (Flag-TNC-CD70) (ligand, UniProt P32970 39-193, looked up)
chain: QRFAQAQQQLPLESLGWDVAELQLNHTGPQQDPRLYWQGGPALGRSFLHGPELDKGQLRIHRDGIYMVHIQVTLAICSSTTASRHHPTTLAVGICSPASRSISLLRLSFHQGCTIASQRLTPLARGDTLCTNLTGTLLPSRNTDETFFGVQWVRP
notes: extracellular domain; Captured by anti-Flag mAb in ELISA; as 'recombinant human CD70' immobilised on Biacore CM5 chips; TNC is for trimerisation; also called recombinant CD70; human recombinant CD70; not shown: Flag tag and TNC trimerisation domain

Tests used:
[1] = biological target: B3; experiment: Biacore; recombinant human CD70 on CM5 chip; Fab from papain digestion
Experimental: (§1) Recombinant human CD70 was immobilized on a CM5 Biacore chip. The immobilization was performed in accordance with a method provided by Biacore and by using the NHS/EDC kit (Biacore AB): after activation of the chip, a solution of 50 μg/ml of recombinant CD70 in 10 mM acetate buffer with pH of 5 was prepared and 1 μl of this solution (50ng) was injected resulting in a surface density of approximately 1000 RU.
Fabs were prepared for the CD70 mAbs ARGX-110, MDX1411 and SGN70 by papain digestion. These Fabs, at a concentration of approximately 100-400 μg/ml, were diluted 6-fold in HEPES-buffered saline (0.1M HEPES, 1.5M NaCl, 30 mM EDTA, 0.5% v/v surfactant P20). They were injected (30 μl) and passed through the flow cells at a flow rate of 30 μl/min. After binding of the Fab to CD70, the off-rate was monitored for a period of 10 minutes. After dissociation, the flow cell surfaces were regenerated by injecting 5 μl of 10 mM NaOH. Sometimes multiple injections of NaOH were needed to regenerate the surfaces depending on the affinity of the Fabs. Off-rate analysis was done by applying the BIAevaluation software. First, the sensogram of the blank runs were subtracted from those obtained with the coated flow cell.

[2] = biological target: B3; experiment: ELISA; Flag-TNC-CD70 captured by anti-Flag mAb; anti-human-Fc-HRP
Experimental: (§2) A Maxisorb (Nunc) microtiter plate was coated with 3.5 μg/ml mouse M2 anti-Flag mAb (Sigma Aldrich, F3165) and the different chimeras were captured. A dilution series of the CD70 mAbs to be tested was applied starting at a concentration of 10 μg/ml and making 3-fold dilutions. After 2 hours, binding was detected using anti-human-Fc-HRP at a 16000-fold dilution. Staining was done with ABTS and OD at 405 nm was measured. As a positive control, CD27-Fc was applied which is able to bind to both human and mouse CD70 with good affinity as well as to the chimeric human-mouse CD70 variants.

[3] = biological target: T1, human-mouse CD70 chimera chim-3 …; experiment: ELISA; chimera captured by anti-Flag mAb; anti-human-Fc-HRP
Experimental: as §2

[4] = biological target: T2, human-mouse CD70 chimera chim-2.1 …; experiment: as above
Experimental: as §2

[5] = biological target: T3, human-mouse CD70 chimera chim-2.4 …; experiment: as above
Experimental: as §2

[6] = biological target: T4, human-mouse CD70 chimera chim-2 …; experiment: as above
Experimental: as §2

[7] = biological target: T5, human-mouse CD70 chimera chim-4 …; experiment: as above
Experimental: as §2

[8] = biological target: T6, human-mouse CD70 chimera chim-1 …; experiment: as above
Experimental: as §2

[9] = biological target: T7, human-mouse CD70 chimera chim-2.2 …; experiment: as above
Experimental: as §2

mouse Flag-TNC-CD70 = biological target: T8, mouse Flag-TNC-CD70; experiment: ELISA; mouse Flag-TNC-CD70 captured by anti-Flag mAb; anti-human-Fc-HRP
Experimental: as §2

[10] = biological target: B2; experiment: Biacore off-rate analysis, CD27 passed over coated CD70
Experimental: as §1, with “Off-rates of the purified llama-derived anti-CD70 blocking Fabs were determined using the Biacore. Recombinant” for “Recombinant”
(§3) Fabs for the CD70 mAbs ARGX-110, MDX2H5 and SGN70 were prepared by […] digestion (SGN70 and MDX69A7 are described elsewhere herein, MDX2H5, also referred to as MDX1411, is described in WO2008/074004 FIGS. 1A and 1B). Fabs, at a concentration of approximately 100-400 μg/ml, were diluted 6-fold in hepes-buffered saline (0.1M Hepes, 1.5M NaCl, 30 mM EDTA, 0.5% v/v surfactant P20). They were injected (30 μl) and passed through the flow cells at a flow rate of 30 μl/min. After binding of the Fab to CD70, the off-rate was monitored for a period of 10 minutes. After the dissociation, the flow cell surfaces were regenerated by injecting 5 μl of 10 mM NaOH. Sometimes multiple injections of NaOH were needed to regenerate the surfaces depending on the affinity of the Fabs. […] Moreover, the off-rate of CD27 for CD70 was determined as well.

CD27 = biological target: T9, CD27; experiment: Biacore; recombinant human CD70 on CM5 chip; CD27 injected
Experimental: as §1, with “Off-rates of the purified llama-derived anti-CD70 blocking Fabs were determined using the Biacore. Recombinant” for “Recombinant”
as §3

Work on B1 yielded a koff [1] of 0.00014 s⁻¹.

B2 showed an EC50 [2] of 0.079 µg/mL, an EC50 [3] of 0.094 µg/mL and an EC50 [4] of 0.051 µg/mL. For the same binder, the EC50 [5] was 0.076 µg/mL, the EC50 [6] was 0.099 µg/mL and the EC50 [7] was 0.051 µg/mL. It also gave an EC50 [8] of 0.159 µg/mL, an EC50 [9] of 0.056 µg/mL and an EC50 (mouse Flag-TNC-CD70) of 0.041 µg/mL.

Work on B3 yielded a koff [10] of 8e-05 s⁻¹ and a koff (CD27) of 8e-05 s⁻¹.
